{"source": "the nanobody polyreactivity screen of Harvey et al. (2022)"}
{"experiment": "yeast display, Sf9 membrane polyspecificity reagent, FACS + sequencing; frameworks hold sequencing errors", "how_it_was_run": "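Nanobodies came from a synthetic yeast display library in Saccharomyces cerevisiae BJ5465, induced with galactose for 36–48 hours and stained for 1 hour at 4 °C with 10% biotinylated, detergent-solubilized Sf9 membrane reagent. Cells were enriched on streptavidin microbeads and then FACS-sorted, with low and high (top ~1%) gates set on anti-HA fluorescence for expression and streptavidin fluorescence for reagent binding. Each polyreactivity label reflects the gate a clone came from. Genes were amplified by colony PCR, sequenced by MiSeq 2 × 250 and filtered by CDR length.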"}
{"sequence": "QVQLVESGGGLVQAGGSLRLSCAASGNIFVVNAMGWYRQAPGKERELVAGITTNGGRTFYADSVKGRFTISRDNAKNTVYLQINSLKPEDTAVYYWNARHGRHRRTRFAKYDYWGQGTQVTVSS", "polyreactivity (PSR sort gate)": "high polyreactivity"}
{"sequence": "QVQLVESGGGLVQAGGSLRLSCAASGNIFYDYGMGWYRQAPGKERELVAGISSVDHTYYADSVKGRFTISRDNAKNTVYLQMNSLKPEDTAVYYCARDTELYVRWLDYWGQGTQVTVSS", "polyreactivity (PSR sort gate)": "low polyreactivity"}
{"sequence": "QVQLVESGGGLVQAGGSLRLSCAASGNIFYGYAMGWYRQAPGKERELVAAISGSSTYYADSVKGRFTISRDNAKNTVYLEMNSLKPEDTAVYYCAVPQYLYLQAGHGYRYYYWGQGTQVTVSS", "polyreactivity (PSR sort gate)": "high polyreactivity"}
{"sequence": "QVQLVESGGGLVQAGGSLRLSCAASGNIFYLYAMGWYRQAPGKEREFSTSYADSVKGRFTISRDNAKNTVYLQMNSLKPEDTAVYYCAAYKSRGPYYYLFDYWGQGTQVTVSS", "polyreactivity (PSR sort gate)": "low polyreactivity"}
{"sequence": "QVQLVESGGGLVQAGGSLRLSCAASGNIFYPYAMGWYRQAPGKERELVAAISWSDGSTYYADSVKGRFTISRDNAKNTVYLQMNILKPEDTAVYYCAAEAYISNYYGRDYWGQGTQVTVSS", "polyreactivity (PSR sort gate)": "high polyreactivity"}
{"sequence": "QVQLVESGGGLVQAGGSLRLSCAASGNIFYRNAIGWYRQAPGKERELVAAIRGGGSTNYADSVKGRFTISRDNAKNTVYLQMNSLKPEDTAVYYCNTVRSPPGHDYWGQGTQVTVSS", "polyreactivity (PSR sort gate)": "low polyreactivity"}
{"sequence": "QVQLVESGGGLVQAGGSLRLSCAASGNIFYTYAMGWYRPAPGKERELVAAITWSGGSTYYADSVKGRFTISRDKAKKTVYLQMNSLKPEDTAVYYCAADSLGYYYSGGYYSIYDHWGQGTQVTVSS", "polyreactivity (PSR sort gate)": "high polyreactivity"}
{"sequence": "QVQLVESGGGLVQAGGSLRLSCAASGNIFYTYAMGWYRQAPGNERELVAGISSDASTTYADSVKGRFTISRDNAKNTVYLPMKSLNPEDTAVYYCPADITGIVWYVYYYWGQGTQVTVSS", "polyreactivity (PSR sort gate)": "low polyreactivity"}
{"sequence": "QVQLVESGGGLVQAGGSLRLSCAASGNIFYVYVMGWYRQAPGKERELVASITSGASTYYADSVKGRFTISRDNAKNTVYLQMNSLKPEDTAVYYCAAEALGGAGDYSTLYIYDYWGQGTQVTVSS", "polyreactivity (PSR sort gate)": "low polyreactivity"}
{"sequence": "QVQLVESGGGLVQAGGSLRLSCAASGNIFYWYAMGWYRQAPGKEREFVAAITRSGGSTSYADSVKGRFTISRDNAKNTVYLQMNSLKPEDTAVYYCNATHWVHFQEFYSWGPGTQVTVSS", "polyreactivity (PSR sort gate)": "low polyreactivity"}
{"sequence": "QVQLVESGGGLVQAGGSLRLSCAASGNIFYYNAMGWYRQAPGKETELVADITWSGGSTYYADSVKGRFTISRDNAKNTVDLQMNSLKPEDTAVYYCADETFGYHRGRIADDYEYWGQGTQVTVSS", "polyreactivity (PSR sort gate)": "low polyreactivity"}
{"sequence": "QVQLVESGGGLVQAGGSLRLSCAASGNIISNNAMGWYRQAPGKERELVAAIDWSGGRTYYADSVKGRFTISRDNAKNNVYIQMNSLKPEDTAVYYCAAEIPFTYRGVFYEYYYWGQGTQVTLSS", "polyreactivity (PSR sort gate)": "high polyreactivity"}
{"sequence": "QVQLVESGGGLVQAGGSLRLSCAASGNILATNCMGWYRQAPGMERELVAAITFSGDTTYYADSVKGRFTISRDNAKNTVYLQMNSLKPEDTAVYYCNAVSFIVNGGYDGDYWGQGTQVTVSS", "polyreactivity (PSR sort gate)": "low polyreactivity"}
{"sequence": "QVQLVESGGGLVQAGGSLRLSCAASGNILRGYAMGWYRQAPGKERELVAAIDTRGGRTNYADSVKGRFTISRDNAKNTVYLQMNSLKPEDTAVYYCNALGYYSFGHEYWGQGTQVTVSS", "polyreactivity (PSR sort gate)": "low polyreactivity"}
{"sequence": "QVQLVESGGGLVQAGGSLRLSCAASGNILSPYTMGWYRQAPGKERELVAGISRSGGTTYYADSVKGRFTLSRDNAKTTVYLQINSLKTEDTAVYYCASGLIYGYSGYDSWGQGTQVTVSS", "polyreactivity (PSR sort gate)": "low polyreactivity"}
{"sequence": "QVQLVESGGGLVQAGGSLRLSCAASGNILSVYTMGWYRQAPGKERELVATITYSGDRTYADSVKGRFTISRDNAKKTVYLQMNSLKPEDTAVYYCNAVYYREGMDYWGQGTQVTVSS", "polyreactivity (PSR sort gate)": "low polyreactivity"}
{"sequence": "QVQLVESGGGLVQAGGSLRLSCAASGNILTTYAMGWYRQAPGKERELVAAIRWSDGSTYYADSVKGRFTISRDNAKNTVYLQMNSLKPEDTAVYYCAADYHYPTWQGGYHYGYWGQGTQVTVSS", "polyreactivity (PSR sort gate)": "high polyreactivity"}
{"sequence": "QVQLVESGGGLVQAGGSLRLSCAASGNILVENAMGWYRQAPGKERELVAVSTSGTSTYADSVKGRFTISRDNAKNSVSFQMNSLKPEDTAVYYCNARRINTLYDSWGQGTLVTVSS", "polyreactivity (PSR sort gate)": "low polyreactivity"}
{"sequence": "QVQLVESGGGLVQAGGSLRLSCAASGNIYDVYAMGWYRQAPGKERELVADIDRGGTTYADSVKGRFTISRDNAKNTVYLQMNSLKPEATAVYYCAADYVQGFGFYYQWHSDYWGQGTQVTVSS", "polyreactivity (PSR sort gate)": "low polyreactivity"}
{"sequence": "QVQLVESGGGLVQAGGSLRLSCAASGNNFGVYAMGWYRQAPGTERELVAAIRYSTVSTYYADSVKGRFTISRDNAKNTVYLQMNSLKPEDTSVYYCAAQRRRYLPGHYYYWGQGTQVTVSS", "polyreactivity (PSR sort gate)": "high polyreactivity"}
{"sequence": "QVQLVESGGGLVQAGGSLRLSCAASGNNFRYNAMVWYRQAPGKERELVAAISSVGTTNYADSVKGRFTISRDNAKNTVYLQMNSLKPEDTAVYYCAAVDYQGGYWYDYWGQGTQVTVSS", "polyreactivity (PSR sort gate)": "low polyreactivity"}
{"sequence": "QVQLVESGGGLVQAGGSLRLSCAASGNNIVINAMGWYRPAPGKERELVAAINWTGGNTYYADSVKGRFTISRDNAKNTVYLQMNSLKPEDSAVYYCAADRRWFVWGLGYWGQGTQVTVSS", "polyreactivity (PSR sort gate)": "low polyreactivity"}
{"sequence": "QVQLVESGGGLVQAGGSLRLSCAASGNTCTPNGMGWYRQAPGKEREFVAAITWSGGRTHYADSVKGRFTISRDNAKNTVYLQMNSLKPEDTAVYYCAARRSHFEYGTYSGYDYYWGQGTQVTVSS", "polyreactivity (PSR sort gate)": "high polyreactivity"}
{"sequence": "QVQLVESGGGLVQAGGSLRLSCAASGNTCYQYAMGWYRQAPGKERELVAAISSSGGSTYYADSVKGRFTISRDNAQNTVYLQMNSLKTEDTAVYYCATDKWYGYYYWGQGTQVTVSS", "polyreactivity (PSR sort gate)": "low polyreactivity"}
{"sequence": "QVQLVESGGGLVQAGGSLRLSCAASGNTFAENDMGWYRQAPGKERELVAAITYSGGDTYYADSVKGRFTISRDNAKNTVYLQMNSLKPEDTAVYYCAADNGSKEFDYWGQGTQVTVSS", "polyreactivity (PSR sort gate)": "low polyreactivity"}
{"sequence": "QVQLVESGGGLVQAGGSLRLSCAASGNTFAFNAMVWYRQAPGKEREFVAAISYSGVSTYYADSEKGRFTISRDNAKNTVYLQMNSLKPEDTAVYYCAARYGWYKYWYDYWGQGTQGTVSS", "polyreactivity (PSR sort gate)": "high polyreactivity"}
{"sequence": "QVQLVESGGGLVQAGGSLRLSCAASGNTFANYAMGWYRQAPGKERELVAAITSNGGSTYYADSVKGRFTISRDNAKNTVYLQMNSLKPEDTAVYYCAAPGAISTRSRYGPGYTYDYWGQVTQVTVSS", "polyreactivity (PSR sort gate)": "low polyreactivity"}
{"sequence": "QVQLVESGGGLVQAGGSLRLSCAASGNTFAPNAMGWYRQAPGKERELVAVISWSSGRTYYADSVKGRFTISRDNAKNTVYLQMNSLKPEDTAVYYCAARFGSGFNYWGQGTQVTVSS", "polyreactivity (PSR sort gate)": "high polyreactivity"}
{"sequence": "QVQLVESGGGLVQAGGSLRLSCAASGNTFDVYAMGWYRQAPGKEREFVARISGRVGSTYYADSVKGRFTISRDNAKYTVYLQMNSLKPEDTAVYYCNRRYQSRNMGYWGQGTQVTVSS", "polyreactivity (PSR sort gate)": "high polyreactivity"}
{"sequence": "QVQLVESGGGLVQAGGSLRLSCAASGNTFEYYVMGWYRQAPGKERELVAAITWSTGSTYYADSVKGRFTISRDNAKNTVYLQMNSLKPEDTAVYYCAALYYFIFGRPTRFDYWGLGTQVTVSS", "polyreactivity (PSR sort gate)": "low polyreactivity"}
{"sequence": "QVQLVESGGGLVQAGGSLRLSCAASGNTFEYYVMGWYRQAPGKERELVAAITWSTGSTYYADSVKGRFTISRDNAKNTVYLQMNSLKPEDTAVYYCNAAYVYYYPHYRYAPTAVDYDYWGQGTQVTVSS", "polyreactivity (PSR sort gate)": "low polyreactivity"}
{"sequence": "QVQLVESGGGLVQAGGSLRLSCAASGNTFFVYAMGWDRQAPGKERELVATITLNGGSTYYADSVKGRFTISRDNAKNTVYLQMNSLKPEDTAVYYCAVEPDVYPSWYYYVDYDYWGQGTQVTVSS", "polyreactivity (PSR sort gate)": "low polyreactivity"}
{"sequence": "QVQLVESGGGLVQAGGSLRLSCAASGNTFFVYAMGWYRQAPGKERELVADINWSTGSTYYADFVKGRFTLSRDNAKNTVYLQMNSLKPEDTAVYYCAAEAYYYVIFHGSWYTDDYWGQGTQVTVSS", "polyreactivity (PSR sort gate)": "low polyreactivity"}
{"sequence": "QVQLVESGGGLVQAGGSLRLSCAASGNTFGDYAMGWYRQAPGKERELVAAISRSGGSTSYADSVKGRFTISRDNAKNTVYLQMNSLKPEDTAVYYCAAYWQRFGYDYWGQGTQVTVSS", "polyreactivity (PSR sort gate)": "low polyreactivity"}
{"sequence": "QVQLVESGGGLVQAGGSLRLSCAASGNTFGIYAMGWYRQAPGKERELVAAISSGTSTNYADSVKGRFTISRDNAKNTVYLQMNSLKPEDTAVYYCNADDQYQDVREDYWGQGTQVTVSS", "polyreactivity (PSR sort gate)": "low polyreactivity"}
{"sequence": "QVQLVESGGGLVQAGGSLRLSCAASGNTFGRYAMGWSRQAPGKERELVASIRGSSVRTFYADSVKGRFTISRDNAKNTVYLQMNSLKPEDTAVYYCAKRGYAYPSSYDSWGQGTQVTVSS", "polyreactivity (PSR sort gate)": "high polyreactivity"}
{"sequence": "QVQLVESGGGLVQAGGSLRLSCAASGNTFGRYAMGWYRQAPGKERELVAAITKRGGTTYYADSVKGRFTISRDYAKNTVYLQMNSLKPEDTAVYDCAAKRSVLRTADYDYWGQGTQVTVSS", "polyreactivity (PSR sort gate)": "high polyreactivity"}
{"sequence": "QVQLVESGGGLVQAGGSLRLSCAASGNTFGYNAMGWYRQAPGKERELVAAISWRGGRTYYADSVKGRFTISRDHAKNTVYLQMNILKTEDTAVYYCAARRHSTRLRLTYDYWGQGTQVTVSW", "polyreactivity (PSR sort gate)": "high polyreactivity"}
{"sequence": "QVQLVESGGGLVQAGGSLRLSCAASGNTFGYNAMGWYRQAPGKERELVASITWSGGSTYYADSVKGRFTISRDNAKNTVYLQMNSLKPEDTAVYYCNADVRYGRDHWGQGTQVTVSS", "polyreactivity (PSR sort gate)": "low polyreactivity"}
{"sequence": "QVQLVESGGGLVQAGGSLRLSCAASGNTFIPNAMGWSRQAPGKETELVAAIRASGGSTYYADSVKGRFTISRDNAKNTVYLQMNSLKPEDTAVYYCNADIWYKTYDYWGQGTQVTVSS", "polyreactivity (PSR sort gate)": "low polyreactivity"}
{"sequence": "QVQLVESGGGLVQAGGSLRLSCAASGNTFIRNVMGWYRQAPGKERELVAGIRTGGSTFYADSVKGRFTISRDNAKNTVYLQMNSLKPEDTAVYYCNADVGDEGNLPYVIRPMDYWGQGTQVTVSS", "polyreactivity (PSR sort gate)": "low polyreactivity"}
